From PMC3629177 (PLoS ONE, 2013)

B1: HuMab 16_(L-40) (antibody, V domains shown)
VH: EVQLVQSGGGLGHPGGSLRLSCAGSGFTFSSYSMHWLRQAPGKGLKWVSAIGTAGGTYYADSVKGRFTISRDNAKNSFYLQMNSLRAEDMAVYYCAREYFFGSGNYGYWGQGTLVTASS
VL: not shown
B2: HuMab 22c (antibody, V domains shown)
VH: QVQLVESGGGVVQPGRSLRLSCAASGFTFRSYGMHWVRQAPGKGLEWVTLIWYDGSNKYYADSVKGRFTISRDNSKNTLYLQMNSLRVEDTAVYYCAREGFNWDAFDIWGQGTMVTVSS
VL: EIVLTQSPGTLSLSPGERATLSCRASQSVRISYLAWYQQKPGQAPRLLIYGTFSRATGIPDRFSGSGSGTDFTLTISRLEPEDFAVYYCQQYGSSMYTFGQGTKLEIK
B3: HuMab 155c (antibody, V domains shown)
VH: EVQLVQSGAEVKKPGESLKISCKGSGYSFTSYWIGWVRQMPGKGLEWMGIIYPGDSDTRYSPSFQGQVTISADKSISTAYLQWSSLKASDTAMYYCARQGSGWYGNYFDYWGQGTLVTVSS
VL: EIVLTQSPGTLSLSPGERATLSCRASQSFSRGYLAWYQQKPGQAPRLLIYGASSRVTGIPDRFSGSGSGTDFTLTISRLEPEDFAVYYCQQYDSSPYTFGQGTKLEIK
B4: HuMab 37_(L-63) (cloned, IgG1) (antibody, V domains shown)
VH: EVQLVQSGGGLVHPGGSLRLSCAGSGFTFSRYALHWVRQAPGKGLEWVSAIGIGGGTFYADSVKGRFTISRDNAKNSLYLQMNSLRAEDMAVYYCARDTYYDFFDAFDIWGQGTMVTVSS
VL: DIQMTQSPSSLSASVGDRVTITCRASQGISSWLAWYQQKPEKAPKSLIYAASSLQSGVPSRFSGSGSGTDFTLTISSLQPEDFATYYCQQYDSYPLTFGGGTKVEIK
B5: HuMab 11_(L-80) (antibody, V domains shown)
VH: QVQLVESGGGVVQPGRSLRLSCAASGFTFSNYGIHWVRQAPGKGLEWVAIIWHDGSNSYYVDSVKGRFTMSRDNSKNTVYLQMNSLRAEDTAVYFCARIIGGAFDIWGQGTMVTVSS
VL: DIQMTQSPSSLSASVGDRVTITCRASQGISSWLAWYQQKPEKAPKSLIYAASSLQSGVPSRFSGSGSGTDFTLTISSLQPEDFATYYCQQYNSYPITFGQGTRLEIK
B6: HuMab 56c (antibody, V domains shown)
VH: QVQVVQSGAEVKKPGSSVKVSCKASGGTFSSYAISWVRQAPGQGLEWMGRIIPILGTAKYAQKFQGRVTIIADKSTSTAYMELSSLRSEDTAVYYCARDQDYYGMDVWGQGTTVTVSS
VL: DIQMTQSPSSVSASVGDRVTITCRASQGISSWLAWYQHKPGKAPKLLIYAASSLQSGVPSRFSGSGSGTDFTLTISSLQPEDFATYYCQQTNNFPWTFGQGTKVEIK
B7: HuMab 33_(L-112) (antibody, V domains shown)
VH: EVQLVESGGGLVQPGGSLRLSCAASGFTFSRYWMSWVRQAPGKGLEWMANIKQDGSETHYVDSVKGRFTISRDNAKNSLYLQMNSLRAEDTAVYYCAIGDYWGQGTLVTVSS
VL: DIQMTQSPSSLSASVGDRVTITCRASQDISSWLAWYQQKPEKAPKSLIYAASSLQSGVPSRFSGSGSGTDFTLTISSLQPEDFATYYCQQYKSYPLTFGGGTKVEIK

These binders were tested against T1, hSOD1-A4V-myc (Homo sapiens, UniProt P00441, point mutant) (assay: co-IP; soluble lysate of transfected HEK-293T/17 cells (PBS + 0.1% Triton X-100) immunoprecipitated with 2 µg HuMab and protein A sepharose; immunoblot with anti-myc 9E10). Details: one partner purified.
T1 construct: human SOD1 with the ALS mutation A4V; source: HEK-293T/17, transiently transfected (pcDNA), in lysate; not shown: myc, C-terminal, kept

Does B1 bind?
Result: binds

Does B2 bind?
Result: binds

Does B3 bind?
Result: binds

Does B4 bind?
Result: binds

Does B5 bind?
Result: binds

Does B6 bind?
Result: binds

Does B7 bind?
Result: binds
